Key:
Ras [1] = test: Ras activation assay in living cells, GRF4 and deletion mutants expressed in HEK-293T cells; format: cell-based, human; settings: HEK-293T cells treated with 8-Br-cAMP
Description: HEK-293T cells were transfected with vector alone, GRF4 (WT), GRF4 lacking its cNMP-BD (ΔcNMP-BD) or its CDC25 domain (ΔCDC25), and then treated (or not) with 8-Br-cAMP. Cell lysates were then incubated with GST-Raf1-RBD to precipitate active Ras, and immunobloited with anti Ras antibodies as above (upper panel). Lower panels are controls for total endogenous Ras and transfected GRF4 or its mutants.
Flag, HA or myc tags was added to the N-terminus of full length GRF4 using PCR, and subcloned into the mammalian expression vector pCMV5 (Invitrogen). Mutants GRF4 with deletion of the CDC25 domain (residue 711-1007, GRF4DCDC25 or DCDC25 for short), the cNMP-BD (residue 134-254, DcNMP-BD), the PLPF motif in the PDZ domain (residue 396-399, -PLPF), or bearing mutations in the PDZ-binding motif (SAV to AAA), were generated using PCR. The GST-GRF4-cNMP-BD (residue 101-303) and GST-Carboxy-terminus (residue 1348-1499) were PCR-generated and cloned into pGEX-2T ( Pharmacia). The latter construct was used to generate a fusion protein (GST-GRF4C terminus) which was used to immunize rabbits for the generation of polyclonal anti GRF4 antibodies.
HEK-293T cells were transfected as above, serum starved overnight and then subjected to various treatments, as described in the text. […] GTP in the lysates was determined using activation specific probes as described. Briefly, to determined the levels of active Ras (Ras-GTP) in cell, sepharose-bound GST fusion protein of the Ras-binding domain (RBD) of Raf-1 (GST-Raf1-RBD; Upstate Biotechnology Inc.) was used to precipitate Ras-GTP from cell lysates, and the amount of Ras-GTP determined by immunoblotting with anti Ras antibodies (Quality Biotech). Similarly, to determine the level of Rap1-GTP in cell lysates, sepharose-bound GST fusion proteins of the Rap1-binding domain of RaIGDS (GST-RaIGDS-RBD) were used to precipitate Rap1-GTP, which was then detected on a Western blot using anti-Rap1 antibodies (Transduction Lab).

Ras [2] = test: In vitro GEF assay (32P-α-GTP binding to Ras); format: biochemical; settings: immunoprecipitated Flag-tagged protein, 100 ng Ras, 30 min
Description: Full length (GRF4) or CDC25-deleted (ΔCDC25) GRF4, or GRF2, each Flag-tagged, were immunoprecipitated from transfected Hek-293T cells using anti Flag antibodies. Equal amounts of immunoprecipitates were washed with GEF lysis buffer, equilibrated with GEF assay buffer and incubated with 32P-α-GTP (diluted in cold GTP) plus 100 ng of Ras for 30 min. Bound and unbound radiolabelled GTP were then separated by filtration, and the amount of bound GTP determined by scintillation counting, as detailed in the Method section. Fold Ras activation was compared to the activation of Ras in the absence of GRFs (which was set to 1).
GRF4 has a RasGRF(GEF) activity/function. To show its GEF activity, we performed in-vitro GEF assays. Briefly, GST-Ras was added alone (tubes 1 and 2) or along with GST-CDC25, or immunoprecipitated full-length of GRF4 (tubes 3 and 4). All tubes contained assay mixture including cold GTP and P32 alpha GTP. The exchange reactions were stopped at the indicated times. The stopped reaction mixtures were passed through nitrocellulose filters which were then washed with stop buffer to separate bound and unbound nucleotides. Filters were dried and then quantified by scintillation counting to determine bound CPM. The labeled nucleotides trapped on the washed filters were assumed to be Ras-associated. The difference in bound CPM over 30 minute period was determined for reactions where GST-Ras was added alone (it is the difference in bound CPM between tubes 1 and 2) and where GST-Ras was added with a GEF (it is the difference in bound CPM between tubes 3 and 4).

Ras [3] = settings: reference 23; cited from earlier work

Fold Ras activation in vitro (activation without GRFs set to 1) (Ras [2]) [fold]	Molecule	8-Br-cAMP-mediated activation of Ras via the construct, compared with wt-GRF4 (Ras [1])	Binding to nucleotide-bound forms of Ras, similar experiments (Ras [3])
–	ACDC25: Mutant GRF4 with deletion of the CDC25 domain (residue 711-1007) (protein) MKPLAIPANHGVMGQQEKHSLPADFTKLHLTDSLHPQVTHVSSSHSGCSITSDSGSSSLSDIYQATESEAGDMDLSGLPETAVDSEDDDDEEDIERASDPLMSRDIVRDCLEKDPIDRTDDDIEQLLEFMHQLPAFANMTMSVRRELCAVMVFAVVERAGTIVLNDGEELDSWSVILNGSVEVTYPDGKAEILCMGNSFGVSPTMDKEYMKGVMRTKVDDCQFVCIAQQDYCRILNQVEKNMQKVEEEGEIVMVKEHRELDRTGTRKGHIVIKGTSERLTMHLVEEHSVVDPTFIEDFLLTYRTFLSSPMEVGKKLLEWFNDPSLRDKVTRVVLLWVNNHFNDFEGDPAMTRFLEEFENNLEREKMGGHLRLLNIACAAKAKRRLMTLTKPSREAPLPFILLGGSEKGFGIFVDSVDSGSKATEAGLKRGDQILEVNGQNFENIQLSKAMEILRNNTHLSITVKTNLFVFKELLTRLSEEKRNGAPHLPKIGDIKKASRYSIPDLAVDVEQVIGLEKVNKKSKANTVGGRNKLKKILDKTRISILPQKPYNDIGIGQSQDDSIVGLRQTKHIPTALPVSGTLSSSNPDLLQSHHRILDFSATPDLPDQVLRVFKADQQSRYIMISKDTTAKEVVIQAIREFAVTATPDQYSLCEVSVTPEGVIKQRRLPDQLSKLADRIQLSGRYYLKNNMETETLCSDEDAQELLRESQPKNPGDKKPVKSETSPVAPRAGSQQKAQSLPQPQQQPPPAHKINQGLQVPAVSLYPSRKKVPVKDLPPFGINSPQALKKILSLSEEGSLERHKKQAEDTISNASSQLSSPPTSPQSSPRKGYTLAPSGTVDNFSDSGHSEISSRSSIVSNSSFDSVPVSLHDERRQRHSVSIVETNLGMGRMERRTMIEPDQYSLGSYAPMSEGRGLYATATVISSPSTEELSQDQGDRASLDAADSGRGSWTSCSSGSHDNIQTIQHQRSWETLPFGHTHFDYSGDPAGLWASSSHMDQIMFSDHSTKYNRQNQSRESLEQAQSRASWASSTGYWGEDSEGDTGTIKRRGGKDVSIEAESSSLTSVTTEETKPVPMPAHIAVASSTTKGLIARKEGRYREPPPTPPGYIGIPITDFPEGHSHPARKPPDYNVALQRSRMVARSSDTAGPSSVQQPHGHPTSSRPVNKPQWHKPNESDPRLAPYQSQGFSTEEDEDEQVSAV	almost abolished	–
4.5	GRF2: Flag-tagged full-length RasGRF2, positive control GEF for Ras (protein, UniProt O14827 1-1237, looked up, full-length Flag tag, Flag-tagged full-length RasGRF2, positive control GEF for Ras) MQKSVRYNEGHALYLAFLARKEGTKRGFLSKKTAEASRWHEKWFALYQNVLFYFEGEQSCRPAGMYLLEGCSCERTPAPPRAGAGQGGVRDALDKQYYFTVLFGHEGQKPLELRCEEEQDGKEWMEAIHQASYADILIEREVLMQKYIHLVQIVETEKIAANQLRHQLEDQDTEIERLKSEIIALNKTKERMRPYQSNQEDEDPDIKKIKKVQSFMRGWLCRRKWKTIVQDYICSPHAESMRKRNQIVFTMVEAESEYVHQLYILVNGFLRPLRMAASSKKPPISHDDVSSIFLNSETIMFLHEIFHQGLKARIANWPTLILADLFDILLPMLNIYQEFVRNHQYSLQVLANCKQNRDFDKLLKQYEANPACEGRMLETFLTYPMFQIPRYIITLHELLAHTPHEHVERKSLEFAKSKLEELSRVMHDEVSDTENIRKNLAIERMIVEGCDILLDTSQTFIRQGSLIQVPSVERGKLSKVRLGSLSLKKEGERQCFLFTKHFLICTRSSGGKLHLLKTGGVLSLIDCTLIEEPDASDDDSKGSGQVFGHLDFKIVVEPPDAAAFTVVLLAPSRQEKAAWMSDISQCVDNIRCNGLMTIVFEENSKVTVPHMIKSDARLHKDDTDICFSKTLNSCKVPQIRYASVERLLERLTDLRFLSIDFLNTFLHTYRIFTTAAVVLGKLSDIYKRPFTSIPVRSLELFFATSQNNRGEHLVDGKSPRLCRKFSSPPPLAVSRTSSPVRARKLSLTSPLNSKIGALDLTTSSSPTTTTQSPAASPPPHTGQIPLDLSRGLSSPEQSPGTVEENVDNPRVDLCNKLKRSIQKAVLESAPADRAGVESSPAADTTELSPCRSPSTPRHLRYRQPGGQTADNAHCSVSPASAFAIATAAAGHGSPPGFNNTERTCDKEFIIRRTATNRVLNVLRHWVSKHAQDFELNNELKMNVLNLLEEVLRDPDLLPQERKAAANILRALSQDDQDDIHLKLEDIIQMTDCMKAECFESLSAMELAEQITLLDHVIFRSIPYEEFLGQGWMKLDKNERTPYIMKTSQHFNDMSNLVASQIMNYADVSSRANAIEKWVAVADICRCLHNYNGVLEITSALNRSAIYRLKKTWAKVSKQTKALMDKLQKTVSSEGRFKNLRETLKNCNPPAVPYLGMYLTDLAFIEEGTPNFTEEGLVNFSKMRMISHIIREIRQFQQTSYRIDHQPKVAQYLLDKDLIIDEDTLYELSLKIEPRLPA	–	bind only to EDTA-treated Ras

From patent publication US20020143164A1, “Ras activator nucleic acid molecules, polypeptides and methods of use” (priority 1999, published 2002)
